Reference: patent publication US20250189530A1 (STCUBE, published 2025)

How the values were obtained:
[1] = target: TRIM variant expressed by HEK293T cells; assay: western blot, relative to WT
[2] = target: peptide 4 WT expressed by HEK293T cells (human); assay: western blot, relative to WT
[3] = target: peptide 4 variant A371G expressed by HEK293T cells (human); assay: western blot, relative to WT
[4] = target: peptide 4 variant C375A expressed by HEK293T cells (human); assay: western blot, relative to WT
[5] = target: peptide 4 variant D366A expressed by HEK293T cells (human); assay: western blot, relative to WT
[6] = target: peptide 4 variant D369A expressed by HEK293T cells (human); assay: western blot, relative to WT
[7] = target: peptide 4 variant E361A expressed by HEK293T cells (human); assay: western blot, relative to WT
[8] = target: peptide 4 variant E363A expressed by HEK293T cells (human); assay: western blot, relative to WT
[9] = target: peptide 4 variant G365A expressed by HEK293T cells (human); assay: western blot, relative to WT
[10] = target: peptide 4 variant G373A expressed by HEK293T cells (human); assay: western blot, relative to WT
[11] = target: peptide 4 variant I372A expressed by HEK293T cells (human); assay: western blot, relative to WT
[12] = target: peptide 4 variant R367A expressed by HEK293T cells (human); assay: western blot, relative to WT
[13] = target: peptide 4 variant T368A expressed by HEK293T cells (human); assay: western blot, relative to WT
[14] = target: peptide 4 variant V362A expressed by HEK293T cells (human); assay: western blot, relative to WT
[15] = target: peptide 4 variant V364A expressed by HEK293T cells (human); assay: western blot, relative to WT
[16] = target: peptide 4 variant V374A expressed by HEK293T cells (human); assay: western blot, relative to WT
[17] = target: peptide 4 variant W370A expressed by HEK293T cells (human); assay: western blot, relative to WT
BTN1A1 Peptide 4 [18] = target: T1, BTN1A1 Peptide 4 (human); assay: ELISA, stock solution
T1 construct: also called BTN1A1-pep4- WT; Pep4
T1 peptide: EVEVGDRTDWAIGVC

[19] = target: T2, BTN1A1 peptide 4 Mutant 8 (T368A) (human); assay: kinetics of peptide on STC43H11-1, separate assay, method not named
T2 construct: The entry already carries the mutation; also called BTN1A1-pep4- Mutant 8
T2 peptide: EVEVGDRADWAIGVC

[20] = target: T3, BTN1A1 peptide 4 Mutant 9 (D369A) (human); assay: as above
T3 construct: The entry already carries the mutation; also called BTN1A1-pep4- Mutant 9
T3 peptide: EVEVGDRTAWAIGVC

[21] = target: T4, BTN1A1 peptide 4 Mutant 10 (W370A) (human); assay: as above
T4 construct: The entry already carries the mutation; also called BTN1A1-pep4- Mutant 10; mutant peptide #10
T4 peptide: EVEVGDRTDAAIGVC

[22] = target: T5, BTN1A1 peptide 4 Mutant 11 (A371G) (human); assay: as above
T5 construct: The entry already carries the mutation; also called BTN1A1-pep4- Mutant 11
T5 peptide: EVEVGDRTDWGIGVC

[23] = target: T6, BTN1A1 peptide 4 Mutant 12 (I372A) (human); assay: as above
T6 construct: The entry already carries the mutation; also called Mutant 12 (1372A); BTN1A1-pep4- Mutant 12
T6 peptide: EVEVGDRTDWAAGVC

TRIM11 peptide = target: T7, TRIM11 peptide; assay: as above
T7 peptide: EVEVGDRTSWALGVC

BTN1A1 Peptide 4 [24] = target: T1, BTN1A1 Peptide 4; assay: as above
[25] = target: T8, BTN1A1 peptide 4 Mutant 5 (G365A) (human); assay: as above
T8 construct: The entry already carries the mutation; also called BTN1A1-pep4- Mutant 5
T8 peptide: EVEVADRTDWAIGVC

[26] = target: T9, BTN1A1 peptide 4 Mutant 6 (D366A) (human); assay: as above
T9 construct: The entry already carries the mutation; also called BTN1A1-pep4- Mutant 6; mutant peptide #6
T9 peptide: EVEVGARTDWAIGVC

[27] = target: T10, BTN1A1 peptide 4 Mutant 7 (R367A) (human); assay: as above
T10 construct: The entry already carries the mutation; also called BTN1A1-pep4- Mutant 7
T10 peptide: EVEVGDATDWAIGVC

[28] = target: T11, CILK1 peptide AQPVHGRTDWASKYA; assay: SPR sensorgrams (Response in RU), 15.625, 31.25, 62.5, 125 and 500 nM
T11 construct: also called serine/threonine-protein kinase ICK (CILK) isoform 2 peptide
T11 peptide: AQPVHGRTDWASKYA

B1: STC43H11-1 (antibody, V domains shown)
VH: QSLEESGGRLVTPGGSLTLTCTVSGIDLSSYAMGWVRQAPGEGLEWIGSIGTGGGTGYASWAKGRFTISKTSTTVDLKMTSLTASDTATYFCATSNLWGPGTLVTVSS
VL: QVLTQTASPVSAAVGGTVTINCQASQSVYNNNRCSWFQQKPGQPPKRLIYHTSTLDSGVPSRFKGSGSGTQFTLTISDVQCDDAATYYCLGNYDCSRADCAAFGGGTEVVVK
notes: From immunized New Zealand rabbits; IgG heavy chain and Kappa light chain; also called clone #43H11; Clone 43H11
**Q.** How did the % binding Rel. Quant. [1] turn out when B1 was run?
**A.** -0.213%

**Q.** What about the % binding Rel. Quant. [2] of the same binder?
**A.** 100%

**Q.** And the % binding Rel. Quant. [3]?
**A.** 9.41%

**Q.** And the % binding Rel. Quant. [4]?
**A.** 277%

**Q.** And the % binding Rel. Quant. [5]?
**A.** -8.55%

**Q.** And the % binding Rel. Quant. [6]?
**A.** 0.178%

**Q.** What about the % binding Rel. Quant. [7] of the same binder?
**A.** 48.3%

**Q.** What about the % binding Rel. Quant. [8] of the same binder?
**A.** 67.6%

**Q.** And the % binding Rel. Quant. [9]?
**A.** 86.8%

**Q.** What about the % binding Rel. Quant. [10] of the same binder?
**A.** 2.25%

**Q.** What about the % binding Rel. Quant. [11] of the same binder?
**A.** 0.127%

**Q.** What about the % binding Rel. Quant. [12] of the same binder?
**A.** 50.1%

**Q.** What about the % binding Rel. Quant. [13] of the same binder?
**A.** 10.4%

**Q.** And the % binding Rel. Quant. [14]?
**A.** 247%

**Q.** And the % binding Rel. Quant. [15]?
**A.** 26.8%

**Q.** What about the % binding Rel. Quant. [16] of the same binder?
**A.** 49.6%

**Q.** What about the % binding Rel. Quant. [17] of the same binder?
**A.** 8.25%

**Q.** What about the ELISA signal (BTN1A1 Peptide 4 [18]) of the same binder?
**A.** 2.88

**Q.** And the Kd [19]?
**A.** 1.77 nM

**Q.** And the koff [19]?
**A.** 0.000822 s⁻¹

**Q.** What about the kon [19] of the same binder?
**A.** 464000 M⁻¹ s⁻¹

**Q.** And the Kd [20]?
**A.** 39.1 nM

**Q.** What about the koff [20] of the same binder?
**A.** 0.0101 s⁻¹

**Q.** And the kon [20]?
**A.** 258000 M⁻¹ s⁻¹

**Q.** And the Kd [21]?
**A.** 4.95 nM

**Q.** What about the koff [21] of the same binder?
**A.** 0.00106 s⁻¹

**Q.** What about the kon [21] of the same binder?
**A.** 215000 M⁻¹ s⁻¹

**Q.** What about the Kd [22] of the same binder?
**A.** 1.39 nM

**Q.** And the koff [22]?
**A.** 0.000425 s⁻¹

**Q.** And the kon [22]?
**A.** 306000 M⁻¹ s⁻¹

**Q.** And the Kd [23]?
**A.** 10.6 nM

**Q.** What about the koff [23] of the same binder?
**A.** 0.000778 s⁻¹

**Q.** And the kon [23]?
**A.** 73600 M⁻¹ s⁻¹

**Q.** What about the Kd (TRIM11 peptide) of the same binder?
**A.** 621 nM

**Q.** And the koff (TRIM11 peptide)?
**A.** 0.1 s⁻¹

**Q.** And the kon (TRIM11 peptide)?
**A.** 162000 M⁻¹ s⁻¹

**Q.** What about the Kd (BTN1A1 Peptide 4 [24]) of the same binder?
**A.** 0.0844 nM

**Q.** What about the koff (BTN1A1 Peptide 4 [24]) of the same binder?
**A.** 1.62e-05 s⁻¹

**Q.** And the kon (BTN1A1 Peptide 4 [24])?
**A.** 192000 M⁻¹ s⁻¹

**Q.** And the Kd [25]?
**A.** 1.72 nM

**Q.** What about the koff [25] of the same binder?
**A.** 0.000146 s⁻¹

**Q.** And the kon [25]?
**A.** 84800 M⁻¹ s⁻¹

**Q.** And the Kd [26]?
**A.** 13.5 nM

**Q.** What about the koff [26] of the same binder?
**A.** 0.00082 s⁻¹

**Q.** What about the kon [26] of the same binder?
**A.** 60900 M⁻¹ s⁻¹

**Q.** And the Kd [27]?
**A.** 0.339 nM

**Q.** And the koff [27]?
**A.** 0.000153 s⁻¹

**Q.** What about the kon [27] of the same binder?
**A.** 453000 M⁻¹ s⁻¹

**Q.** Does B1 bind [28]?
**A.** no binding (tested: 500 nM)
